Measurements published in the domain aggregation screens of Martell et al. (2025).

Assay: soluble fraction after stress (log2 fold change); higher = more stays soluble; pooled small domains, quantitative proteomics
Settings: stress: 75 degC
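Also: 20 min heating vs room temperature control held 20 min.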

Point of comparison: “HMQSRYALLAGMLRARITEGDWVPGSAIPAETVLAKEHGVALGTMRQAIALLVSQGLLERQHGRGTFVRS”, “soluble fraction (log2)” value -1.58. Against it:
- HMQMSWDAVKARLQDIVNNEDKTKPFNDEMLASKLKEQGIEIARRTVVKYRQQLGIPAARLRKK — higher, -0.752
- HMQNAETPDVAAEFRTWTSADGQFQVIAKLVKLDGESVHLERQDDGRQIAVPLGKLSSEDRLFLRGVRP — higher, -0.184
- HMQNEQIAFSKFLQEVDSGRVVQVEIQGNNIKGILSDGSKFYTYSPNYPELVGKLSEKGVNIVASPVE — higher, 0.196
- HMQNFLSITSKEKIDIGNFQLISFKFENNLYDYVISGNKSELLIFQEKTIENNNENIEKITSNF — lower, -2.54
- HMQNLETVEEIKELALNYLDKYQPSKKSLQVYLFRKAIDAQSNSVEKSEILKKIETVLTDLEEQGILNDAL — higher, -0.135
- HMQNMVYVATKDIPAGGVIDQDSVSKTAISTSIDTSLYITDDDLGKIAVVNISQGQSVFSNMVGT — higher, 0.656
- HMQNNITISKEIELRTGPDDTYPTLKKVTAGDNVEMLSKSDTWYEIKTNDSFVGWVPGWSIL — higher, -0.0886
- HMQNSYSVEDLALKAGLSVDTIRYYQGLDLIAPPQKNGRRAIYGDEHLSRLDEIKKLALEGFSLRQISLLK — higher, -0.739
- HMQNYNLTQQEKKVLQLLVSGKSYKMIAAELNVAFDTVKSHITNIYSKLHVHSGTEAVSVAIRDKI — within 0.2 log units, -1.46
- HMQPDDELVRLLLIKIFNDKQLKVNPAVINYLLRRIDRSFESINNFVKKIDEFSLEKGRKITVNLVSGFF — higher, -0.777
- HMQPFTELTPREREILGHLAEGQSNKVIARHLDISDGTVKLHVKAILRKLGVHSRVEAAVMAVEHGIR — lower, -2.11
- HMQPIEIQDRITKAFERSAALEAKNINVEVDGHTVKLTGTVHSLTEKEEARKAAFFAPGVTKVENHLIVDY — higher, 0.0424
- HMQPMIQIHTLANHAPVALHIKRNTQRNIIIRARDASSLNLSIPKWFSPAQLQNWLRDNEATLIRILQQAP — lower, -3.6
- HMQPPKIISTVEPYREVVREYLKQGVEMTAIWQRLRENYQYTGSYSSVRRFVAQLEPRQPEA — lower, -1.9
- HMQPQLFRVIADDGLNIRSGPGPEYPPVAPMLRKGTQVELLQAGDRWSKVEVVGSTDVEGWVNQRYLQAV — higher, -0.169
- HMQPSQTLSATVEFPDRLDRFLALAFPEVSRARFQRLIAEGHVSVEGVPATEIRHKLKAGQRVEAVIPPA — higher, -0.276
- HMQPTVEGLMKALETMTFNERTALALHYGLTGRQPMTFMAIGRYLGISDGRAEALVNSAIRKLR — lower, -1.8
- HMQQGVEQLPVTEVGGRLMHYYEVQPKETLYSLSHKLGVGQEYIEQHNPSVRGGLRAFMTLYFPAA — higher, -0.00835
- HMQQIAVDLSEFKPRLMRDMSSMLAGLYTHDLDLSSLDFSKVANFTFMFRGAIITGTLKMPKI — higher, 0.202
- HMQQLDDDTVAYVADNGIAVKSKNGKELSVDTSGLSYDIIMDMFRNLPRNGDFFSSKYWSDNIQKAQAR — higher, 0.447
- HMQQLIEFSVTKGHPWINKKIMDLNLPENQLILTIQREGHVVSAEGKTIILENDRITISTDDR — higher, -1.26
- HMQQPVVVQQNQTVRVVTGGPGFQVANEGRALNNGLAGQVVQVRLGNGQIISGIARAGGIVEIL — higher, -0.017
- HMQQSQLDDIKSVVGGDEGYNKLREWTQANVPDETLKAFDKILDTQDPTMIKVAVEGFAAQMRQAE — higher, -0.232
- HMQQTAEDWKNKGDSLTAQSEYVEAIAAYDEAIRLDPNYAPAWSNKGNALKNLGEYYKAIQAYDEAIRL — higher, 0.104
- HMQQYLDAYDKALAFGIAMNKLPSYENLTLDDKEDVDKLKEIYDGMSNYEKTFVAKDFTDKLDRYVKRIE — higher, 0.347
- HMQRADYLILYYIKMQAEQHPDSKVYLADLAAVMGLKVTELSKAVEKLQDNGFVAWKTDREAGRTYVELS — lower, -3.13
- HMQRIFIDNHDRILYYSNPAGYIAGKEAVVDTMFQTQELERFLQKQSLSIRWEDGVYDRLLLGQ — higher, -0.0579
- HMQRRHESTPIPADFDYAAVRGLSAEVQQKLERVRPLSIGQAQRIPGMTPAAISLLLVHLERQRRSRV — higher, -1.24
- HMQRSVKNNDTVQVHYTGKLTNGQIFDSSIDKQPLEFQLGQGQIIPGFEKGLIDMTVSEKKTITIPEAEAY — higher, 0.193
- HMQSAEMTLDREGQPVQVRVELTGNEARITFLSDQEQTREALDAGMAQLRELLEQQGMVLAGVTV — higher, -0.00816
- HMQSDQLSDREREILRLIGSGRTNQEISQELQVSGSTVRTHLQHILDKLGLENRNQAVLYAIRIGLAAPP — higher, -0.163
- HMQSHGSRIWTDITGNFTREASFIELAEGKVTLQLTDGRRTIISFEILSKKDQEYVLDIGDS — lower, -2.77
- HMQSKDDLLDTFRVVKGNAALLNDQNKKLIRSLKVSSFGFTGITDQAAEVKKEMPDVLLEKASIEDILF — higher, 0.0597
- HMQSLAAKINGYIVAQRTSIAAIAKEIGYSRVTVSRYLAGKYDSDPTGIEAKLAAFLAGQTGEE — lower, -3.99
- HMQSNIHELQKKLNEALQALSEDHRAVVTMFDIQGMPHAEISKILGVSEGTVRSRLYYAHQQLQGHL — higher, -1.11
- HMQSSDQTDNIYENAVSIVLETGKASASHLQRVLGIDYNLAAHLIDKMEDGGLLSPPNYLGHRDVYGYT — higher, 0.317
- HMQTFNADDIEPIIKEILQENPKAISDFLTGNENVVKFLLGQVMKNTKGKANPKVIEELLINQLRELNN — higher, -0.235
